Measured values: US20190002560A1 (Alector, published 2019)
Values joined by “and” are separate entries in the source; they are usually repeats but may differ in a detail not shown here. Identical values can stand only once. Blank lines part the entries; values can stand above or below the molecule they belong to.

What was measured:
P46A = assay: alanine-scanning library in HEK-293T cells, immunofluorescence by flow cytometry; mean of duplicates, mock-subtracted, normalised to wild-type CD33; range in parentheses
F44A = assay: as above
Y50A = assay: as above
F21A = assay: as above
K52A = assay: as above
D18A = assay: as above
N53A = assay: as above
N20A = assay: as above
P19A = assay: as above
Y49A = assay: as above
human CD33 [1] = target: T1, human CD33 (human, UniProt P20138 18-364); assay: flow cytometry, human primary dendritic cells, 10 ug/ml antibody
human CD33 [2] = target: T1, human CD33; assay: flow cytometry, human primary monocytes, 10 ug/ml antibody
human CD33 [3] = target: T1, human CD33; assay: flow cytometry, CHO cells expressing recombinant human CD33, 10 ug/ml antibody, PE secondary
human CD33 [4] = target: T1, human CD33; assay: cell-based or functional assay
CD33-Fc (human) = CD33-Fc (human) (UniProt P20138); assay: red blood cell solid adhesion assay, plate-bound CD33-Fc, antibody at 1.0 ug/ml; competitor: ligands on red blood cells; % of RBC binding without antibody
human CD33 [5] = target: T1, human CD33; assay: flow cytometry, human primary macrophages, 10 ug/ml antibody
[6] = target: histidine-tagged human CD33 (Sino Biological) (human, UniProt P20138 18-364); assay: SPR (BiaCore T200, 25 C), antibody captured on anti-mouse IgG chip, 20 nM His-tagged CD33 in solution, single-concentration 1:1 fit; apparent KD
human CD33 [7] = target: T1, human CD33; assay: flow cytometry binding curve on human primary dendritic cells, about 0.003-3 nM antibody
human CD33 [8] = target: T1, human CD33; assay: flow cytometry binding curve on human primary dendritic cells, about 0.003-3 nM antibody (FIG. 5H)

T1 sequence (P20138 18-364 limits assumed): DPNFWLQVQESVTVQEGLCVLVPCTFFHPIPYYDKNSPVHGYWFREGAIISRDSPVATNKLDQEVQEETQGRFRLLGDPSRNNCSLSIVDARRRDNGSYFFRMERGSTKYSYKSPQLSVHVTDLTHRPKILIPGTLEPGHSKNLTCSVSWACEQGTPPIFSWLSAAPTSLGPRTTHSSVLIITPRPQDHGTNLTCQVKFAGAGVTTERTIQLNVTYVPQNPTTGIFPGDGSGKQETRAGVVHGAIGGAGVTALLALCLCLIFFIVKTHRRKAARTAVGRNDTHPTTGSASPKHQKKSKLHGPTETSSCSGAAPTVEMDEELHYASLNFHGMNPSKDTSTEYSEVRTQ
histidine-tagged human CD33 (Sino Biological), sequence (P20138 18-364): as the sequence (P20138 18-364 limits assumed) above
F44A, sequence (receptor chain, as listed by the source F44A F44A limits assumed): as the sequence (P20138 18-364 limits assumed) above, with F27A counted along it
D18A, sequence (receptor chain, as listed by the source D18A D18A limits assumed): as the sequence (P20138 18-364 limits assumed) above, with D1A counted along it
Y50A, sequence (receptor chain, as listed by the source Y50A Y50A limits assumed): as the sequence (P20138 18-364 limits assumed) above, with Y33A counted along it
F21A, sequence (receptor chain, as listed by the source F21A F21A limits assumed): as the sequence (P20138 18-364 limits assumed) above, with F4A counted along it
P19A, sequence (receptor chain, as listed by the source P19A P19A limits assumed): as the sequence (P20138 18-364 limits assumed) above, with P2A counted along it
N20A, sequence (receptor chain, as listed by the source N20A N20A limits assumed): as the sequence (P20138 18-364 limits assumed) above, with N3A counted along it
N53A, sequence (receptor chain, as listed by the source N53A N53A limits assumed): as the sequence (P20138 18-364 limits assumed) above, with N36A counted along it
P46A, sequence (receptor chain, as listed by the source P46A P46A limits assumed): as the sequence (P20138 18-364 limits assumed) above, with P29A counted along it
Y49A, sequence (receptor chain, as listed by the source Y49A Y49A limits assumed): as the sequence (P20138 18-364 limits assumed) above, with Y32A counted along it
K52A, sequence (receptor chain, as listed by the source K52A K52A limits assumed): as the sequence (P20138 18-364 limits assumed) above, with K35A counted along it

Binding Reactivity (% WT) (P46A): 152 % WT
Binding Reactivity (% WT) (F44A): 76.5 % WT
Binding Reactivity (% WT) (Y50A): 75.1 % WT
Binding Reactivity (% WT) (F21A): 137 % WT
Binding Reactivity (% WT) (K52A): 12.4 % WT
Binding Reactivity (% WT) (D18A): 98 % WT
Binding Reactivity (% WT) (N53A): 164 % WT
Binding Reactivity (% WT) (N20A): 166 % WT
Binding Reactivity (% WT) (P19A): 116 % WT
Binding Reactivity (% WT) (Y49A): 1.7 % WT
Molecule: WM53 MAb (antibody)

% Positive (human CD33 [1]): 1.97%
MFI (human CD33 [1]): 861
% Positive (human CD33 [2]): 2.38%
MFI (human CD33 [2]): 109
% Positive (human CD33 [3]): 0.47%
MFI (human CD33 [3]): 227
% CD33 surface expression, U937 cells (FACS, 1.0 ug/ml antibody, 24 h, % of no antibody) (human CD33 [4]): 95.7%
% CD33 surface expression, human microglial cells (FACS, % of no antibody) (human CD33 [4]): 92.1%
% CD33 surface expression, human primary dendritic cells (FACS, 1.0 ug/ml antibody, 24 h, % of no antibody) (human CD33 [4]): 70.5%
% CD33 surface expression, human primary macrophages (FACS, 1.0 ug/ml antibody, 24 h, % of no antibody) (human CD33 [4]): 95.4%
% CD33 surface expression, human primary monocytes (FACS, 1.0 ug/ml antibody, 24 h, % of no antibody) (human CD33 [4]): 104%
Percent RBC Binding to CD33 (CD33-Fc (human)): 83.8%
% Positive (human CD33 [5]): 4.16%
MFI (human CD33 [5]): 1220
Molecule: isotype mIgG1 control antibody

Percent RBC Binding to CD33 (CD33-Fc (human)): 10%
Kd [6]: 6 nM
B1: anti-CD33 antibody 1A8 (antibody, V domains shown)
VH: QVQLQQSGAELVKPGASVKLSCKASGYTFTSYDINWVRQRPEQGLEWIGWIFPGDGSTKYNEKFKGKATLTTDKSSNTTYMQLSRLTSEDSAVYFCARGYHYAMDSWGQGTSVTVSS
VL: DIKMTQSPSSMYESLGERVTITCKASQDINKYLSWLQQKPGKSPKTLIYRANRLVDGVPSRFSGSGSGQDYSLTISSLEYEDMGIYHCLQYDEFPLTFGAGTKLELK
notes: Mouse hybridoma antibody; mIgG1 served as isotype control; also called 1A8.2

EC50 (human CD33 [7]): 0.845 nM
B2: anti-CD33 antibody lintuzumab (antibody, V domains shown)
VH: QVQLVQSGAEVKKPGSSVKVSCKASGYTFTDYNMHWVRQAPGQGLEWIGYIYPYNGGTGYNQKFKSKATITADESTNTAYMELSSLRSEDTAVYYCARGRPAMDYWGQGTLVTVSS
VL: DIQMTQSPSSLSASVGDRVTITCRASESVDNYGISFMNWFQQKPGKAPKLLIYAASNQGSGVPSRFSGSGSGTDFTLTISSLQPDDFATYYCQQSKEVPWTFGQGTKVEIKR
notes: Commercially available antibody

EC50 for reducing cell surface expression of CD33 (12-point 2-fold titration, FACS) (human CD33 [4]): 0.107 nM
EC50 (human CD33 [7]): 0.613 nM
Kd [6]: 1.1 nM
B3: anti-CD33 antibody gemtuzumab (antibody, V domains shown)
VH: EVQLVQSGAEVKKPGSSVKVSCKASGYTITDSNIHWVRQAPGQSLEWIGYIYPYNGGTDYNQKFKNRATLTVDNPTNTAYMELSSLRSEDTAFYYCVNGNPWLAYWGQGTLVTVSS
VL: DIQLTQSPSTLSASVGDRVTITCRASESLDNYGIRFLTWFQQKPGKAPKLLMYAASNQGSGVPSRFSGSGSGTEFTLTISSLQPDDFATYYCQQTKEVPWSFGQGTKVEVKR
notes: as for B2

% Positive (human CD33 [1]): 99%
MFI (human CD33 [1]): 4300
EC50 (human CD33 [8]): < 0.2 nM
% Positive (human CD33 [2]): 97.5%
MFI (human CD33 [2]): 1200
% Positive (human CD33 [3]): 87%
MFI (human CD33 [3]): 9520
% CD33 surface expression, U937 cells (FACS, 1.0 ug/ml antibody, 24 h, % of no antibody) (human CD33 [4]): 46.7%
% CD33 surface expression, human microglial cells (FACS, % of no antibody) (human CD33 [4]): 25%
% CD33 surface expression, human primary dendritic cells (FACS, 1.0 ug/ml antibody, 24 h, % of no antibody) (human CD33 [4]): 15.9%
% CD33 surface expression, human primary macrophages (FACS, 1.0 ug/ml antibody, 24 h, % of no antibody) (human CD33 [4]): 58.7%
% CD33 surface expression, human primary monocytes (FACS, 1.0 ug/ml antibody, 24 h, % of no antibody) (human CD33 [4]): 23.3%
EC50 for reducing cell surface expression of CD33 (12-point 2-fold titration, FACS) (human CD33 [4]): 0.0215 nM
cell surface CD33 on hCD45+ hCD14+ blood cells of hu-NSGS mice (FACS, 40 mg/kg i.p.) (human CD33 [4]): 80%
cell surface CD33 on human primary monocytes at 0.001 ug/ml antibody (FACS, % of no antibody) (human CD33 [4]): 50% and 30%
cell surface CD33 on human primary monocytes at 0.01 ug/ml antibody (FACS, % of no antibody) (human CD33 [4]): 20%
cell surface CD33 on peripheral human CD45+ CD14+ monocytes of humanized NOG mice (FACS, single i.p. dose) (human CD33 [4]): 50%
fold improvement over gemtuzumab in reducing cell surface levels of CD33 on human primary monocytes (human CD33 [4]): 10 fold
fold improvement over lintuzumab in reducing cell surface levels of CD33 on human primary monocytes (human CD33 [4]): 100 fold
Binding Reactivity (% WT) (P46A): 105 % WT
Binding Reactivity (% WT) (F44A): 102 % WT
Binding Reactivity (% WT) (Y50A): 32.7 % WT
Binding Reactivity (% WT) (F21A): 122 % WT
Binding Reactivity (% WT) (K52A): 8.9 % WT
Binding Reactivity (% WT) (D18A): 79.5 % WT
Binding Reactivity (% WT) (N53A): 78.2 % WT
Binding Reactivity (% WT) (N20A): 111 % WT
Binding Reactivity (% WT) (P19A): 102 % WT
Binding Reactivity (% WT) (Y49A): 20.6 % WT
Percent RBC Binding to CD33 (CD33-Fc (human)): 11.5%
EC50 (human CD33 [7]): 0.138 nM
Kd [6]: 0.3 nM
% Positive (human CD33 [5]): 96.7%
MFI (human CD33 [5]): 2510
B4: anti-CD33 antibody 2F5 (antibody, V domains shown)
VH: EVQLQQSGPELVKPGASVKISCKASGYTFTDYNLHWVKLSHGKSLEWIGFIYPSNGITGYNQKFKNKATLTVDNSSSTAYMELRSLTSEDSAVYYCARSTVDYFDYWGQGTTLTVSS
VL: ZTQSLASLAVSLGQRATMSCRASQSVSTSTYSYMHWYQQKPGQPPKLLIKYASNLECGVPARFSGSGZGTDFTLNIHPVEEEDSATYYCQHSWEIPLTFGGGTKLEMK
notes: Mouse hybridoma antibody, tested under the label 2F5; also called C-2F5; 2F5 mAb
